In this experiment the target is Stx2a A-subunit (dissociated from recombinant Stx2a) (enterohemorrhagic Escherichia coli …, UniProt P09385 23-319). Description: AlphaScreen or HTRF. The following applies: both partners purified. (Bead proximity is the source of the signal in Alpha formats.)

Ends that are not written are not given here.

By IC50 is commonly meant the midpoint of a concentration-inhibition curve.

Chain of Stx2a A-subunit (dissociated from recombinant Stx2a) (P09385 23-319): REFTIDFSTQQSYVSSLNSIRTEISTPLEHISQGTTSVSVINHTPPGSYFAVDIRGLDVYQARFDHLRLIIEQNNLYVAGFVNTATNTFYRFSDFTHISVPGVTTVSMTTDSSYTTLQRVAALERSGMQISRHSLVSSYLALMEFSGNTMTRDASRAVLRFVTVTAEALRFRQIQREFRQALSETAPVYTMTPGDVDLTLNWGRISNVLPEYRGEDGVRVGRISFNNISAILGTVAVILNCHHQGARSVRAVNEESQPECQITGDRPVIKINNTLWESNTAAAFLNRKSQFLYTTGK

Take RRRRA-NH2 (source: synthetic peptide) [R4A-mono]: the IC50 worked out at 2700 nM.

(Values after article PMC9259562 (Scientific Reports, 2022).)
